Measurements as given in paper PMC7331137.

Columns and labels:
[1] = target: IntC-CCre tagged with FLAG (UniProt P06956)
[2] = target: IntC-CCre tagged with FLAG (UniProt P06956); remark: listed apart in the source
[3] = target: IntC-CCre tagged with FLAG (UniProt P06956); remark: listed apart in the source

DsRed fluorescence from a LoxP-stop-LoxP DsRed reporter in HEK293T cells cotransfected with both constructs (none with either alone) [1]: 99%
TdTomato fluorescence in striatal neurons of Dlx6-CCre-IRES-eGFP reporter mice injected with NCre-IntN-mTagBFP2 lentivirus [2]: 78.3%
TdTomato expression in neurons of the central amygdala after injection of FuG-E-NCre-IntN retrograde lentivirus into the dorsal striatum of Dlx6-CCre-IRES-eGFP::LoxP-stop-LoxP-TdTomato mice [3]: 89.9%
Substance: NCre-IntN tagged with HA (from UniProt P06956 1-59)
